In assay [1] the target is human FGFR2c expressed on CHOK1 cells (human) (UniProt P21802). The assay can be described thus: flow cytometry on CHOK1 cells expressing hFGFR2c, detection with APC anti-human IgG Fc.
Assay [2] has as its target hFGFR2b-Fc (Kactus, Catalog #FGR-HM2BB) (human) (UniProt P21802). Description: epitope binning ELISA: competing Ab FPA144 in solution with biotin-hFGFR2b-Fc; competitor (column, coated) HC18.
Assay [3] shares this target. Description: epitope binning ELISA: competing Ab FPA144 in solution with biotin-hFGFR2b-Fc; competitor (column, coated) FPA144.
In assay [4] the target is human FGFR2b expressed on cells (hFGFR2b-expressing CHOK1 cells; Ba/F3 cells expressing full-length human FGFR2b) (human) (UniProt P21802). The assay can be described thus: flow cytometry on CHOK1 cells expressing hFGFR2b, detection with APC anti-human IgG Fc.
In assay [5] the target is hFGFR2b-Fc (Kactus, Catalog #FGR-HM2BB) (human) (UniProt P21802). The assay can be described thus: competition ELISA: inhibition of biotin-FGF10 binding to coated hFGFR2b-Fc.
Assay [6] shares this target. Description: competition ELISA: inhibition of FGF7-his binding to coated hFGFR2b-Fc.

Sequence of hFGFR2b-Fc (Kactus, Catalog #FGR-HM2BB) (human) (P21802 other isoform, or with tags, fused parts or gaps): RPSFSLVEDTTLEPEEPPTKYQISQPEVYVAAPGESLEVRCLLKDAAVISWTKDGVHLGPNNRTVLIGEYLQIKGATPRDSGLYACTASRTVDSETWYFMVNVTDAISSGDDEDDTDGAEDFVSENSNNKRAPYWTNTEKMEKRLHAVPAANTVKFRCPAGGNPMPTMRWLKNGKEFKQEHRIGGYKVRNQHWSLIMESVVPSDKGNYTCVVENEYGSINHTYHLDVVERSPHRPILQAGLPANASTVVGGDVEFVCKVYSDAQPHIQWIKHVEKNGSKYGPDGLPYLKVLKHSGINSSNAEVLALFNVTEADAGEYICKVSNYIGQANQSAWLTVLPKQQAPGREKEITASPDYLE
Sequence of human FGFR2b expressed on cells (hFGFR2b-expressing CHOK1 cells; Ba/F3 cells expressing full-length human FGFR2b) (human) (P21802 other isoform, or with tags, fused parts or gaps): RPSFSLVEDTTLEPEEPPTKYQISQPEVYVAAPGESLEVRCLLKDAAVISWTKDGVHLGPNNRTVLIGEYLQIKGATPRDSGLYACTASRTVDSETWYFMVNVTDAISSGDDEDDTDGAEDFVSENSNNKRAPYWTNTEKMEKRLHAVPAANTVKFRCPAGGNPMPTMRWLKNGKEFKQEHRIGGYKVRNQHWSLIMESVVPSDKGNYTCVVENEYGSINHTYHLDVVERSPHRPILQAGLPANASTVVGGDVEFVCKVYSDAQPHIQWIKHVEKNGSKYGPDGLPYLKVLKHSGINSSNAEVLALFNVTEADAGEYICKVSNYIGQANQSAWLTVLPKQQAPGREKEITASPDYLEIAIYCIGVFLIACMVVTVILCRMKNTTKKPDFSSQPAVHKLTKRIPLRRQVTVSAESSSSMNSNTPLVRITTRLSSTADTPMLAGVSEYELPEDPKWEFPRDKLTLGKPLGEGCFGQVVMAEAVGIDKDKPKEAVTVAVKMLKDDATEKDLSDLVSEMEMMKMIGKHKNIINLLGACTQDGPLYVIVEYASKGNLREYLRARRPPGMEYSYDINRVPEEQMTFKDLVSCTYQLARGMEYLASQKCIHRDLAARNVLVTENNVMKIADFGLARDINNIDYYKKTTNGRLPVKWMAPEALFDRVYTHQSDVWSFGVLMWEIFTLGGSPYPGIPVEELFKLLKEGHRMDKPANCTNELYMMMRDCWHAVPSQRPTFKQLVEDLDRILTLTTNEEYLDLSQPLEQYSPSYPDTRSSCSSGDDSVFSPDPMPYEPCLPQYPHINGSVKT
Sequence of human FGFR2c expressed on CHOK1 cells (human) (P21802 22-821): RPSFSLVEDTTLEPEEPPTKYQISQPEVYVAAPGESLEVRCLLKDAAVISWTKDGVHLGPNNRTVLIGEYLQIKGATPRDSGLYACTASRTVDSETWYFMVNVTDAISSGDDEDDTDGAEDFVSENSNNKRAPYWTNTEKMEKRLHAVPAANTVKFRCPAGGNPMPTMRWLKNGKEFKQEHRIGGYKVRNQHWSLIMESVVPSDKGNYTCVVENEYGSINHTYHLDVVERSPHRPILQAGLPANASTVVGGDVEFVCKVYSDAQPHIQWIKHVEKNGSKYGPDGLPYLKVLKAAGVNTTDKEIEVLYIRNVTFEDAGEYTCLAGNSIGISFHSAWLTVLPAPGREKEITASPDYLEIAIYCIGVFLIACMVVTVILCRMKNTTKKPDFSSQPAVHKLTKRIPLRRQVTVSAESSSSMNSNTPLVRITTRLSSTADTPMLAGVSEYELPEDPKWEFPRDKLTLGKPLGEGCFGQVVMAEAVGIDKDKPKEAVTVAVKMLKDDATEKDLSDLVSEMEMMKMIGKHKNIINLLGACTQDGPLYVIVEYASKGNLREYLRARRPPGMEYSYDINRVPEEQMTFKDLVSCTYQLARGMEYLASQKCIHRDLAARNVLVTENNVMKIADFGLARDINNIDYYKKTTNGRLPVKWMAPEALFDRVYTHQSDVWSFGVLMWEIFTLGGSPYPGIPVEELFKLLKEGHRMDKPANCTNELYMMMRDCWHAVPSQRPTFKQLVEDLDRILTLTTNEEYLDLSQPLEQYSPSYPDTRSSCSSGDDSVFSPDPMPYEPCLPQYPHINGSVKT

B1: Aprutumab (antibody, INN chains, looked up, V domains shown)
VH: EVQLLESGGGLVQPGGSLRLSCAASGFTFSSYAMSWVRQAPGKGLEWVSAISGSGTSTYYADSVKGRFTISRDNSKNTLYLQMNSLRAEDTAVYYCARVRYNWNHGDWFDPWGQGTLVTVSS
VL: QSVLTQPPSASGTPGQRVTISCSGSSSNIGNNYVSWYQQLPGTAPKLLIYENYNRPAGVPDRFSGSKSGTSASLAISGLRSEDEADYYCSSWDDSLNYWVFGGGTKLTVL
In assay [1], B1 displayed an EC50 (read off the curve) of 1 nM.

B2: FPA144 (antibody, INN chains, looked up, V domains shown)
VH: QVQLVQSGAEVKKPGSSVKVSCKASGYIFTTYNVHWVRQAPGQGLEWIGSIYPDNGDTSYNQNFKGRATITADKSTSTAYMELSSLRSEDTAVYYCARGDFAYWGQGTLVTVSS
VL: DIQMTQSPSSLSASVGDRVTITCKASQGVSNDVAWYQQKPGKAPKLLIYSASYRYTGVPSRFSGSGSGTDFTFTISSLQPEDIATYYCQQHSTTPYTFGQGTKLEIK
In assay [2], B2 showed a percent competition (epitope binning; value not given) of 98%. The percent competition (epitope binning; value not given) in assay [3] came out at 98%. The molecule also came in with an EC50 (read off the curve) in assay [4] of 0.2 nM. Besides, in assay [5], the IC50 amounted to 6.65 nM, the Inhibition (%) was 100% and the ODmin came to 0.496 OD. In assay [6], this molecule showed an IC50 of 2.4 nM, an Inhibition (%) of 100% and an ODmin of 0.172 OD.

The values above are taken from patent publication US20260242487A1.
